From patent EP4790069A1 (Kyoto University, dated 2026)

What was measured:
[1] = molecular target: T1, mouse CD153 (mouse, UniProt P32972 1-239); experiment: flow cytometry on EL4 cells stably expressing mouse CD153
T1 construct: whole, on cells; also called mCD153
T1 sequence (looked up): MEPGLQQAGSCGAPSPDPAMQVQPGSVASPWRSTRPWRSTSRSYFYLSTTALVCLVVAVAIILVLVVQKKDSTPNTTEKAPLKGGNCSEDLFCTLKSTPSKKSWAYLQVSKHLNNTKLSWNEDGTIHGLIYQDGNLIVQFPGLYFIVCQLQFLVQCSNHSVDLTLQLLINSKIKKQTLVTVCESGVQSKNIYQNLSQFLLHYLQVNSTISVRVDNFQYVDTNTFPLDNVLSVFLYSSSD

[2] = molecular target: T2, human CD153 (human, UniProt P32971 1-234); experiment: flow cytometry, hybridoma supernatant on 293H cells expressing hCD153
T2 construct: whole, on cells; also called hCD153; CD30L
T2 sequence (looked up): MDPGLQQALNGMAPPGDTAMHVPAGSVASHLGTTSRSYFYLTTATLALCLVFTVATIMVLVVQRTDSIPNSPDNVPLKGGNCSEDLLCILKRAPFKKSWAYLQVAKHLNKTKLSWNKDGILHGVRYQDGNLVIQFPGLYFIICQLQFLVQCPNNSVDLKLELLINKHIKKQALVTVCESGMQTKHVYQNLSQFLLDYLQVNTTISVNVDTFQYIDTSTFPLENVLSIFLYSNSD

binding result [2]: binds
B1: anti-human CD153 monoclonal antibody 2H7-9 (antibody, V domains shown)
VH: RVQLQQSGAELVRPGTSVKISCKASGYAFTNYWLGWVKQRPGHGLEWIGDIYPGNYNSYSNEKFKGKATLTADESSSTAYMQLSSLTSEDSAVYFCARIYGNYWIFDVWGAGTTVTVSS
VL: QIVLTQSPAIMSASPGEKVTMTCSASSSVNYMHWFQQKPGTSPKLWIYSTSDLASGVPARFSGSGSGTSYSLTISRMEAEDAATYYCQQRSSYPLTFGAGTKLELK
notes: Mouse hybridoma antibody (CD153-KO B6 mouse), purified with Protein A and detected with anti-mouse IgG
binding result [1]: no binding (tested: 160 µg/ml to 0.00977 µg/ml)
